According to US20240343799A1 (Innovent, published 2024):
Positions count from the first letter of the chain named. Numbers in names are those of the source.

Legend:
[1] = target: T1, CD79b on the surface of B-cell non-Hodgkin's lymphoma cells (human, UniProt P40259 29-229); assay: flow cytometry on BJAB cells, goat anti-human IgG PE
T1 construct: whole, on cells; Endogenous CD79b of the cell lines; on cells it stands in the B cell receptor complex with CD79a; also called CD79b on Ramos cells; CD79b on BJAB cells
T1 sequence (looked up): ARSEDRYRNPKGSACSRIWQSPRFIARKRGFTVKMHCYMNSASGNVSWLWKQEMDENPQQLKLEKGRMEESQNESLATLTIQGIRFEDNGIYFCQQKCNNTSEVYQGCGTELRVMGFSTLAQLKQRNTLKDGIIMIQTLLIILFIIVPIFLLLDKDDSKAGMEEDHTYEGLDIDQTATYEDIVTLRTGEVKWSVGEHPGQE
Method: (§1) The binding ability of the CD79b/CD3 bispecific antibodies for CD79b-positive B-cell non-Hodgkin's lymphoma cell lines was detected by flow cytometry.
(§2) BJAB (AddexBio, USA, Cat #C0003016) and WSU-DLCL2 (Nanjing Kebai Biotechnology Co., Ltd., Cat #CBP60273) were cultured and passaged according to the conventional procedures. Cells were counted after centrifugation and resuspension, adjusted to a density of 4×10⁶ cells/mL, poured into a loading tank, and seeded to a 96-well plate at 50 μL/well using a multichannel pipettor. 50 μL of the antibody sample diluted in gradient was added to the 50 μL of cells in each well, and the mixture was then incubated in an incubator at 5% CO₂ and 37° C. for 30 min. The mixture was centrifuged at 400 g for 5 min, then 200 μL of PBS was added, and the resulting mixture was centrifuged at 400 g for 5 min. This procedure was repeated 3 times. Goat anti-human IgG PE (1:200) was added, and the mixture was incubated for 30 min in the dark at room temperature. The mixture was washed with 200 μL of PBS twice, centrifuged, and then resuspended in 100 μL of PBS, and the values were read using a flow cytometer. The values were fitted to obtain a curve and EC₅₀ values were calculated.

[2] = target: T1, CD79b on the surface of B-cell …; assay: flow cytometry on WSU-DLCL2 cells, goat anti-human IgG PE
Method: as §1, §2

[3] = target: T2, human CD79b-his (Sino biological) (human, UniProt P40259 29-159); assay: SPR (Biacore T200), CD79b-His coupled to chip, antibody injected
T2 construct: Amine-coupled to the Biacore chip (about 50 RU); not shown: His tag
T2 sequence (looked up): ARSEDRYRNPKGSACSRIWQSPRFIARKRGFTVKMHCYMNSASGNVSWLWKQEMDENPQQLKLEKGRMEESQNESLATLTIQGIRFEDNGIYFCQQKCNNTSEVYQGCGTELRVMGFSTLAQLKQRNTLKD
Method: (§3) The binding kinetics of exemplary anti-CD79b/CD3 antibodies of the present invention for human CD79b, human CD3, and cynomolgus monkey CD3 were determined using surface plasmon resonance (Biacore T200). (1) Affinity assay of antibodies for human CD79b-his (Sino biological): 50 mM N-hydroxysuccinimide (NHS) and 200 mM 1-ethyl-3-(3-dimethylaminopropyl) carbodiimide hydrochloride (EDC) were freshly mixed and activated for 420 s at a flow rate of 10 μL/min. Human CD79b-His antigen was then diluted in 10 mM Acetate (pH 5.0), and after dilution to a concentration of 1 μg/mL, the antigen solution was subjected to coupling and the value was approximately 50 RU. Then 1 M ethanolamine was injected at a flow rate of 10 μL/min for 420 s to block the remaining activation sites. The buffer used in the experiment was HBS-EP+ solution at pH 7.4, and under a high performance mode, the antibodies obtained after 2-fold gradient dilution (0-80 nM) were each injected, according to an ascending order based on concentrations, into the channels 1, 2, 3 and 4 of the chip at a flow rate of 30 μL/min, wherein one cycle was used for determination of one concentration, the binding time was 180 s, and the dissociation time was 600 s. (2) Affinity assay of antibodies for human CD3E & CD3G-biotin (Sino biological) and monkey CD3E & CD3G-biotin (Sino biological): 50 mM NHS and 200 mM EDC were freshly mixed and activated for 420 s at a flow rate of 10 μL/min. Streptavidin (Thermo Fisher scientific) protein was then diluted in 10 mM Acetate (pH 4.5) and after dilution to a concentration of 10 μg/mL, the antigen solution was subjected to coupling and the value was approximately 3000 RU. Then 1 M ethanolamine was injected at a flow rate of 10 μL/min for 420 s to block the remaining activation sites. Human CD3E & CD3G-biotin and monkey CD3E & CD3G-biotin proteins were each immobilized on the chip channels coupled with Streptavidin protein. The antibodies (0-16 nM or 0-40 nM or 0-200 nM) obtained after 2-fold gradient dilution were each injected, according to an ascending order based on concentrations, into the channels 1, 2, 3 and 4 of the chip at a flow rate of 30 μL/min, wherein one cycle was used for determination of one concentration, the binding time was 180 s, and the dissociation time was 300 s.

[4] = target: T3, human CD3E & CD3G-biotin (Sino biological) (human, UniProt P07766 23-126; P09693 23-116, limits assumed); assay: SPR (Biacore T200), biotinylated CD3E&CD3G on streptavidin chip, antibody injected
T3 construct: also called Human CD3E&G
T3 sequence (P07766 23-126 limits assumed, chain 1 of 2): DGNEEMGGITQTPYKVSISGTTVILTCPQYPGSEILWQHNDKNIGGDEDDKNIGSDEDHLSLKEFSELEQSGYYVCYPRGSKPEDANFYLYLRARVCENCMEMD
T3 sequence (P09693 23-116 limits assumed, chain 2 of 2): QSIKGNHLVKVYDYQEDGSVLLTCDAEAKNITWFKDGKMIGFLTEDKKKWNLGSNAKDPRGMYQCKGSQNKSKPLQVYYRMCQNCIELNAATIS
Method: as §3

[5] = target: T4, monkey CD3E & CD3G-biotin (Sino biological) (cynomolgus monkey, UniProt Q95LI5 22-117; Q95LI7 23-113, limits assumed); assay: SPR (Biacore T200), biotinylated monkey CD3E&CD3G on streptavidin chip, antibody injected
T4 construct: also called Cyno CD3E&G; monkey CD3E&G
T4 sequence (looked up) 1: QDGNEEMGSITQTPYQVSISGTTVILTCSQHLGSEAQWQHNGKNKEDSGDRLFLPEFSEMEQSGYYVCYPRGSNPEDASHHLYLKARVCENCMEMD
T4 sequence (looked up) 2: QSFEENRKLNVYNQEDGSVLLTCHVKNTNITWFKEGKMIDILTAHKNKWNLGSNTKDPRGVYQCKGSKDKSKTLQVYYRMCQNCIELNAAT
Method: as §3

B1: 38D9B3.11/sp34.87 (bispecific antibody, human IgG1, kappa, lambda, L234A L235A)
heavy 1: not shown
light 1: EIVLTQSPATLSLSPGERATLSCKASQSVDHDVDSYMDWYQQKPGQAPRLLIYSASNLESGIPARFSGSGSGTDFTLTISSLEPEDFAVYYCQQINEYPYTFGGGTKVEIKRTVAAPSVFIFPPSDEQLKSGTASVVCLLNNFYPREAKVQWKVDNALQSGNSQESVTEQDSKDSTYSLSSTLTLSKADYEKHKVYACEVTHQGLSSPVTKSFNRGEC
heavy 2: not shown
light 2: QAVVTQEPSLTVSPGGTVTLTCRSSTGAVTTSNYANWVQQKPGQAPRGLIGGTNKRAPGVPARFSGSLLGDKAALTLLGAQPEDEAEYYCALWYSNLWVFGQGTKLTVLGQPKAAPSVTLFPPSSEELQANKATLVCLISDFYPGAVTVAWKADSSPVKAGVETTTPSKQSNNKYAASSYLSLTPEQWKSHRSYSCQVTHEGSTVEKTVAPTECS
notes: 1+1 anti-CD79b x CD3 bispecific, IgG1 Fc with knob-in-hole and L234A/L235A; also called 38D9B3.11 x HzSP34.87
[1]
  EC50 (read off the curve): ~5 nM
[2]
  EC50 (read off the curve): ~9 nM
[3]
  Kd: 1.66 nM
  koff: 0.00031 s⁻¹
  kon: 187000 M⁻¹ s⁻¹
[4]
  Kd: 119 nM
  koff: 0.0368 s⁻¹
  kon: 310000 M⁻¹ s⁻¹
[5]
  Kd: 253 nM
  koff: 0.0275 s⁻¹
  kon: 109000 M⁻¹ s⁻¹

B2: 11G10.9.p1/sp34.87 (bispecific antibody, human IgG1, kappa, lambda, L234A L235A)
heavy 1: not shown
light 1: DIVMTQTPLSLSVTPGQPASISCKSSQSLLDSEGKTYLNWLLQKPGQSPQSLIYLVSKLDSGVPDRFSGSGSGTDFTLKISRVEAEDVGVYYCWQGTHFPLTFGGGTKVEIKRTVAAPSVFIFPPSDEQLKSGTASVVCLLNNFYPREAKVQWKVDNALQSGNSQESVTEQDSKDSTYSLSSTLTLSKADYEKHKVYACEVTHQGLSSPVTKSFNRGEC
heavy 2: not shown
light 2: B1 light 2
notes: also called 11G10.9.p1 x HzSP34.87
[1]
  EC50 (read off the curve): ~20 nM
[2]
  EC50 (read off the curve): ~30 nM
[3]
  Kd: 4.5 nM
  koff: 0.00208 s⁻¹
  kon: 461000 M⁻¹ s⁻¹
[4]
  Kd: 107 nM
  koff: 0.0331 s⁻¹
  kon: 308000 M⁻¹ s⁻¹
[5]
  Kd: 202 nM
  koff: 0.0336 s⁻¹
  kon: 167000 M⁻¹ s⁻¹

B3: 34F1.14/sp34.87 (bispecific antibody, human IgG1, kappa, lambda, L234A L235A)
heavy 1: not shown
light 1: DVVMTQSPLSLPVTLGQPASISCKSSLSLLDSEGKTYLNWFQQRPGQSPRPLISLVSKLDSGVPDRFSGSGSGTDFTLKISRVEAEDVGVYYCWQGTHFPLTFGGGTKVEIKRTVAAPSVFIFPPSDEQLKSGTASVVCLLNNFYPREAKVQWKVDNALQSGNSQESVTEQDSKDSTYSLSSTLTLSKADYEKHKVYACEVTHQGLSSPVTKSFNRGEC
heavy 2: not shown
light 2: B1 light 2
notes: also called 34F1.14 x HzSP34.87
[3]
  Kd: 7.03 nM
  koff: 0.00207 s⁻¹
  kon: 295000 M⁻¹ s⁻¹
[4]
  Kd: 92 nM
  koff: 0.0315 s⁻¹
  kon: 342000 M⁻¹ s⁻¹
[5]
  Kd: 180 nM
  koff: 0.032 s⁻¹
  kon: 178000 M⁻¹ s⁻¹

B4: 38D9B3.11/sp34.24 (bispecific antibody, human IgG1, kappa, lambda, L234A L235A)
heavy 1: not shown
light 1: B1 light 1
heavy 2: not shown
light 2: B1 light 2
notes: also called 38D9B3.11 x HzSP34.24
[1]
  EC50 (read off the curve): ~5 nM
[2]
  EC50 (read off the curve): ~10 nM
[3]
  Kd: 0.787 nM
  koff: 0.000268 s⁻¹
  kon: 341000 M⁻¹ s⁻¹
[4]
  Kd: 6.19 nM
  koff: 0.00565 s⁻¹
  kon: 912000 M⁻¹ s⁻¹
[5]
  Kd: 10.9 nM
  koff: 0.00656 s⁻¹
  kon: 603000 M⁻¹ s⁻¹

B5: 11G10.9.p1/sp34.24 (bispecific antibody, human IgG1, kappa, lambda, L234A L235A)
heavy 1: not shown
light 1: B2 light 1
heavy 2: not shown
light 2: B1 light 2
notes: also called 11G10.9.p1 x HzSP34.24
[1]
  EC50 (read off the curve): ~20 nM
[2]
  EC50 (read off the curve): ~30 nM
[3]
  Kd: 2.16 nM
  koff: 0.00176 s⁻¹
  kon: 815000 M⁻¹ s⁻¹
[4]
  Kd: 6.25 nM
  koff: 0.00531 s⁻¹
  kon: 851000 M⁻¹ s⁻¹
[5]
  Kd: 10.7 nM
  koff: 0.0061 s⁻¹
  kon: 570000 M⁻¹ s⁻¹

B6: 34F1.14/sp34.24 (bispecific antibody, human IgG1, kappa, lambda, L234A L235A)
heavy 1: not shown
light 1: B3 light 1
heavy 2: not shown
light 2: B1 light 2
notes: also called 34F1.14 x HzSP34.24
[1]
  EC50 (read off the curve): ~60 nM
[3]
  Kd: 3.1 nM
  koff: 0.00161 s⁻¹
  kon: 519000 M⁻¹ s⁻¹
[4]
  Kd: 4.99 nM
  koff: 0.00512 s⁻¹
  kon: 1.03e+06 M⁻¹ s⁻¹
[5]
  Kd: 8.75 nM
  koff: 0.00593 s⁻¹
  kon: 678000 M⁻¹ s⁻¹

B7: CD79b.A7v14b/38E4v1 (bispecific antibody, human IgG1, kappa, L234A L235A)
heavy 1: not shown
light 1: B2 light 1 with S12P, E33D, L101Q, G105Q
heavy 2: not shown
light 2: not shown
notes: also called CD79b.A7v14b x 38E4v1
[1]
  EC50 (read off the curve): ~10 nM
[2]
  EC50 (read off the curve): ~20 nM
[3]
  Kd: 8.66 nM
  koff: 0.00701 s⁻¹
  kon: 809000 M⁻¹ s⁻¹
[4]
  Kd: 1 nM
  koff: 0.00296 s⁻¹
  kon: 2.96e+06 M⁻¹ s⁻¹
[5]
  Kd: 1.52 nM
  koff: 0.00285 s⁻¹
  kon: 1.88e+06 M⁻¹ s⁻¹
